Results published in patent publication US20260209347A1 (BIORAY PHARMACEUTICAL, published 2026).

Tests used:
[1] = target: T1, human NKG2A/CD94 on cells (CHOK1-hNKG2A/CD94) (human, UniProt P26715 1-233; Q13241 1-179); experiment: cell-based or functional assay
[2] = target: T1, human NKG2A/CD94 on cells …; experiment: FACS on human NKG2A overexpressing cell line
Protocol: Human NKG2A overexpressing cells (CHOK1-hNKG2A/CD94), cyno NKG2A overexpressing cells (CHOK1-cynoNKG2A/CD94), and human NKG2C overexpressing cells (CHOK1-hNKG2C/CD94) were digested with TrypLE (purchased from Gibco). Cells were collected by centrifugation, then resuspended to 2E6/mL with FACS buffer (PBS+2% FBS). The cells were added to a 96-well cell plate at 100 μL per well, and the supernatant was discarded after centrifugation. The antibody was gradiently diluted with FACS buffer (initial concentration of 200 nM, 5-fold dilution, including point 0, a total of 10 concentration points), added to the cells at 100 μL/well, mixed, and incubated at 4° C. for 1 hour. The incubated cells were centrifuged at 300 g for 5 min and washed twice with FACS buffer. Secondary antibody, anti-human IgG fluorescent secondary antibody 488 (purchased from Thermofisher A-11013), was added, incubated at 4° C. for one hour, then the cells were washed twice with FACS buffer, resuspended in PBS and analyzed by FACS instrument.
The binding activity of humanized antibodies to human NKG2A overexpressing cell line was detected by FACS (refer to Example 4 for FACS). The maximum MFIs of cAb-43 and its humanized mutant antibodies to human NKG2A overexpressing cell line were greater than that of the Z270 control antibody.

T1 sequence (P26715 whole entry, chain 1 of 2): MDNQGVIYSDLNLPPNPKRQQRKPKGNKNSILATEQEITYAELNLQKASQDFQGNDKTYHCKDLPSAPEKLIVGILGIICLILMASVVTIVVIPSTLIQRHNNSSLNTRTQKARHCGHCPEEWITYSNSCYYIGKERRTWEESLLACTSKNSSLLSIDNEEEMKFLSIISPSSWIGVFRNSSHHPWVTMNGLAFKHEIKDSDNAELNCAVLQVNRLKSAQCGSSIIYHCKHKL
T1 sequence (Q13241 whole entry, chain 2 of 2): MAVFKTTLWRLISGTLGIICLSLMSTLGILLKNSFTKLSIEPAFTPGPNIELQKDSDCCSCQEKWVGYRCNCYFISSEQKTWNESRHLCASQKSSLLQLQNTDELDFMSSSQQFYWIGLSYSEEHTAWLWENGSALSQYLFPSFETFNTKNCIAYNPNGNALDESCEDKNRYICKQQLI

Binder | Maximum MFI [2] [MFI] | IC50 (nM), killing of LCL721.221 target cells by NK92 cells [1] [nM]
hu-52VH-13/VL-11 (antibody, human IgG4 S228P, kappa, V domains shown, full-length humanized antibody; also called hu-52 humanized antibody) VH: QVQLVQSGAEVKKPGASVKVSCKASGFNIQNTYLHWVRQAPGQGLEWMGRIDPANDNIKYVPKFQGRVTMTADTSTNTAYMELSSLRSEDTAVYYCTRHGLFYEGWFAYWGQGTLVTVSS VL: DIQLTQSPSSLSASVGDRVTITCSVSSSISSSNLHWYQQKPGKAPKPLIYGTSNLASGVPSRFSGSGSGTDYTLTISSLQPEDAATYYCQQWSSYPYTFGQGTKLEIKR | 18800 | 0.19
hu-52VH-13/VL-31 (antibody, human IgG4 S228P, kappa, V domains shown, full-length humanized antibody; also called hu-52 humanized antibody) VH: QVQLVQSGAEVKKPGASVKVSCKASGFNIQNTYLHWVRQAPGQGLEWMGRIDPANDNIKYVPKFQGRVTMTADTSTNTAYMELSSLRSEDTAVYYCTRHGLFYEGWFAYWGQGTLVTVSS VL: EIVLTQSPATLSLSPGERATLSCSVSSSISSSNLHWYQQKPGQAPRPLIYGTSNLASGIPARFSGSGSGTDYTLTISSLEPEDAAVYYCQQWSSYPYTFGQGTKLEIKR | 18800 | 0.16
hu-52VH-13/VL-21 (antibody, human IgG4 S228P, kappa, V domains shown, full-length humanized antibody; also called hu-52 humanized antibody) VH: QVQLVQSGAEVKKPGASVKVSCKASGFNIQNTYLHWVRQAPGQGLEWMGRIDPANDNIKYVPKFQGRVTMTADTSTNTAYMELSSLRSEDTAVYYCTRHGLFYEGWFAYWGQGTLVTVSS VL: DIQLTQSPSTLSASVGDRVTITCSVSSSISSSNLHWYQQKPGKAPKPLIYGTSNLASGVPSRFSGSGSGTEYTLTISSLQPDDAATYYCQQWSSYPYTFGQGTKLEIKR | 18900 | 0.14
hu-52VH-23/VL-11 (antibody, human IgG4 S228P, kappa, V domains shown, full-length humanized antibody; also called hu-52 humanized antibody) VH: QVQLVQSGAEVKKPGASVKVSCKASGFNIQNTYLHWVRQAPGQGLEWMGRIDPANDNIKYVPKFQGRVTMTADTSINTAYMELSRLRSDDTAVYYCTRHGLFYEGWFAYWGQGTLVTVSS VL: DIQLTQSPSSLSASVGDRVTITCSVSSSISSSNLHWYQQKPGKAPKPLIYGTSNLASGVPSRFSGSGSGTDYTLTISSLQPEDAATYYCQQWSSYPYTFGQGTKLEIKR | 18700 | 0.13

The next lines start with results.

Maximum MFI [2] [MFI] | Binder | IC50 (nM), killing of LCL721.221 target cells by NK92 cells [1] [nM]
18100 | hu-52VH-23/VL-31 (antibody, human IgG4 S228P, kappa, V domains shown, full-length humanized antibody; also called hu-52 humanized antibody) VH: QVQLVQSGAEVKKPGASVKVSCKASGFNIQNTYLHWVRQAPGQGLEWMGRIDPANDNIKYVPKFQGRVTMTADTSINTAYMELSRLRSDDTAVYYCTRHGLFYEGWFAYWGQGTLVTVSS VL: EIVLTQSPATLSLSPGERATLSCSVSSSISSSNLHWYQQKPGQAPRPLIYGTSNLASGIPARFSGSGSGTDYTLTISSLEPEDAAVYYCQQWSSYPYTFGQGTKLEIKR | –
18000 | hu-52VH-33/VL-21 (antibody, human IgG4 S228P, kappa, V domains shown, full-length humanized antibody; also called hu-52 humanized antibody) VH: QVQLVQSGAEVKKPGSSVKVSCKASGFNIQNTYLHWVRQAPGQGLEWMGRIDPANDNIKYVPKFQGRVTITADTSTNTAYMELSSLRSEDTAVYYCTRHGLFYEGWFAYWGQGTLVTVSS VL: DIQLTQSPSTLSASVGDRVTITCSVSSSISSSNLHWYQQKPGKAPKPLIYGTSNLASGVPSRFSGSGSGTEYTLTISSLQPDDAATYYCQQWSSYPYTFGQGTKLEIKR | –
18800 | hu-52VH-33/VL-11 (antibody, human IgG4 S228P, kappa, V domains shown, full-length humanized IgG4 antibody (not the L235E/D265A/R409K IgG4 mutant); also called hu-52 humanized antibody) VH: QVQLVQSGAEVKKPGSSVKVSCKASGFNIQNTYLHWVRQAPGQGLEWMGRIDPANDNIKYVPKFQGRVTITADTSTNTAYMELSSLRSEDTAVYYCTRHGLFYEGWFAYWGQGTLVTVSS VL: DIQLTQSPSSLSASVGDRVTITCSVSSSISSSNLHWYQQKPGKAPKPLIYGTSNLASGVPSRFSGSGSGTDYTLTISSLQPEDAATYYCQQWSSYPYTFGQGTKLEIKR | 0.09
18000 | hu-52VH-23/VL-21 (antibody, human IgG4 S228P, kappa, V domains shown, full-length humanized antibody; also called hu-52 humanized antibody) VH: QVQLVQSGAEVKKPGASVKVSCKASGFNIQNTYLHWVRQAPGQGLEWMGRIDPANDNIKYVPKFQGRVTMTADTSINTAYMELSRLRSDDTAVYYCTRHGLFYEGWFAYWGQGTLVTVSS VL: DIQLTQSPSTLSASVGDRVTITCSVSSSISSSNLHWYQQKPGKAPKPLIYGTSNLASGVPSRFSGSGSGTEYTLTISSLQPDDAATYYCQQWSSYPYTFGQGTKLEIKR | 0.12
